This is an account of results in patent US20160130303.

Series [1] deals with T1, PGS-1, YRRAAVPPSPSLSRHSSPSQS(p)EDEEE.
T1 chain: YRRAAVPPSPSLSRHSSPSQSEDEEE

The target in a further series is T2, p9CREB, ILSRRPS(p)YR.
T2 chain: ILSRRPSYR

Series [2] concerns the target T3, pIRS-1, RREGGMSRPAS(p)VDG.
T3 chain: RREGGMSRPASVDG

For the next series, the target named is T4, L803-mts (not fully specified).
T4 chain: GKEAPPAPPQSP

B1: GSK-3β F93A mutant (protein)
chain: MSGRPRTTSFAESCKPVQQPSAFGSMKVSRDKDGSKVTTVVATPGQGPDRPQEVSYTDTKVIGNGSFGVVYQAKLCDSGELVAIKKVLQDKRAKNRELQIMRKLDHCNIVRLRYFFYSSGEKKDEVYLNLVLDYVPETVYRVARHYSRAKQTLPVIYVKLYMYQLFRSLAYIHSFGICHRDIKPQNLLLDPDTAVLKLCDFGSAKQLVRGEPNVSYICSRYYRAPELIFGATDYTSSIDVWSAGCVLAELLLGQPIFPGDSGVDQLVEIIKVLGTPTREQIREMNPNYTEFKFPQIKAHPWTKDSSGTGHFTSGVRVFRPRTPPEAIALCSRLLEYTPTARLTPLEACAHSFFDELRDPNVKLPNGRDTPALFNFTTQELSSNPPLATILIPPHARIQAAASTPTNATAASDANTGDRGQTNNAASASASNST
Consider B1, for which the Substrate phosphorylation (% of WTGSK-3β) (% of WTGSK-3β) in series [1] amounted to 13; in the series with p9CREB, ILSRRPS(p)YR, 46; in series [2], 42.

B2: GSK-3β R92A mutant (protein)
chain: MSGRPRTTSFAESCKPVQQPSAFGSMKVSRDKDGSKVTTVVATPGQGPDRPQEVSYTDTKVIGNGSFGVVYQAKLCDSGELVAIKKVLQDKAFKNRELQIMRKLDHCNIVRLRYFFYSSGEKKDEVYLNLVLDYVPETVYRVARHYSRAKQTLPVIYVKLYMYQLFRSLAYIHSFGICHRDIKPQNLLLDPDTAVLKLCDFGSAKQLVRGEPNVSYICSRYYRAPELIFGATDYTSSIDVWSAGCVLAELLLGQPIFPGDSGVDQLVEIIKVLGTPTREQIREMNPNYTEFKFPQIKAHPWTKDSSGTGHFTSGVRVFRPRTPPEAIALCSRLLEYTPTARLTPLEACAHSFFDELRDPNVKLPNGRDTPALFNFTTQELSSNPPLATILIPPHARIQAAASTPTNATAASDANTGDRGQTNNAASASASNST
On to B2, for which the Substrate phosphorylation (% of WTGSK-3β) (% of WTGSK-3β) turned out to be 41 in series [1]; 49 in the series with p9CREB, ILSRRPS(p)YR; 60 in series [2].

B3: GSK-3β K94A mutant (protein)
chain: MSGRPRTTSFAESCKPVQQPSAFGSMKVSRDKDGSKVTTVVATPGQGPDRPQEVSYTDTKVIGNGSFGVVYQAKLCDSGELVAIKKVLQDKRFANRELQIMRKLDHCNIVRLRYFFYSSGEKKDEVYLNLVLDYVPETVYRVARHYSRAKQTLPVIYVKLYMYQLFRSLAYIHSFGICHRDIKPQNLLLDPDTAVLKLCDFGSAKQLVRGEPNVSYICSRYYRAPELIFGATDYTSSIDVWSAGCVLAELLLGQPIFPGDSGVDQLVEIIKVLGTPTREQIREMNPNYTEFKFPQIKAHPWTKDSSGTGHFTSGVRVFRPRTPPEAIALCSRLLEYTPTARLTPLEACAHSFFDELRDPNVKLPNGRDTPALFNFTTQELSSNPPLATILIPPHARIQAAASTPTNATAASDANTGDRGQTNNAASASASNST
With B3, the Substrate phosphorylation (% of WTGSK-3β) (% of WTGSK-3β) came to 19 in series [1]; 71 with p9CREB, ILSRRPS(p)YR; 52 in series [2].

B4: wild-type (WT) GSK-3β (protein)
chain: MSGRPRTTSFAESCKPVQQPSAFGSMKVSRDKDGSKVTTVVATPGQGPDRPQEVSYTDTKVIGNGSFGVVYQAKLCDSGELVAIKKVLQDKRFKNRELQIMRKLDHCNIVRLRYFFYSSGEKKDEVYLNLVLDYVPETVYRVARHYSRAKQTLPVIYVKLYMYQLFRSLAYIHSFGICHRDIKPQNLLLDPDTAVLKLCDFGSAKQLVRGEPNVSYICSRYYRAPELIFGATDYTSSIDVWSAGCVLAELLLGQPIFPGDSGVDQLVEIIKVLGTPTREQIREMNPNYTEFKFPQIKAHPWTKDSSGTGHFTSGVRVFRPRTPPEAIALCSRLLEYTPTARLTPLEACAHSFFDELRDPNVKLPNGRDTPALFNFTTQELSSNPPLATILIPPHARIQAAASTPTNATAASDANTGDRGQTNNAASASASNST
In the case of B4, in the series with L803-mts, the “in vitro kinase assays using pIRS-1, p9CREB, and pGS-1 substrate in the presence or absence of L803-mts (100 µM)” value is given as “L803-mts (SEQ ID NO:5) competes with various substrates”.

B5: GSK-3β K91A mutant (protein)
chain: MSGRPRTTSFAESCKPVQQPSAFGSMKVSRDKDGSKVTTVVATPGQGPDRPQEVSYTDTKVIGNGSFGVVYQAKLCDSGELVAIKKVLQDARFKNRELQIMRKLDHCNIVRLRYFFYSSGEKKDEVYLNLVLDYVPETVYRVARHYSRAKQTLPVIYVKLYMYQLFRSLAYIHSFGICHRDIKPQNLLLDPDTAVLKLCDFGSAKQLVRGEPNVSYICSRYYRAPELIFGATDYTSSIDVWSAGCVLAELLLGQPIFPGDSGVDQLVEIIKVLGTPTREQIREMNPNYTEFKFPQIKAHPWTKDSSGTGHFTSGVRVFRPRTPPEAIALCSRLLEYTPTARLTPLEACAHSFFDELRDPNVKLPNGRDTPALFNFTTQELSSNPPLATILIPPHARIQAAASTPTNATAASDANTGDRGQTNNAASASASNST
For the protein B5, the Substrate phosphorylation (% of WTGSK-3β) (% of WTGSK-3β) in series [1] came out at 119; with p9CREB, ILSRRPS(p)YR it was 161; in series [2], 140.

B6: GSK-3β D90A mutant (protein)
chain: MSGRPRTTSFAESCKPVQQPSAFGSMKVSRDKDGSKVTTVVATPGQGPDRPQEVSYTDTKVIGNGSFGVVYQAKLCDSGELVAIKKVLQAKRFKNRELQIMRKLDHCNIVRLRYFFYSSGEKKDEVYLNLVLDYVPETVYRVARHYSRAKQTLPVIYVKLYMYQLFRSLAYIHSFGICHRDIKPQNLLLDPDTAVLKLCDFGSAKQLVRGEPNVSYICSRYYRAPELIFGATDYTSSIDVWSAGCVLAELLLGQPIFPGDSGVDQLVEIIKVLGTPTREQIREMNPNYTEFKFPQIKAHPWTKDSSGTGHFTSGVRVFRPRTPPEAIALCSRLLEYTPTARLTPLEACAHSFFDELRDPNVKLPNGRDTPALFNFTTQELSSNPPLATILIPPHARIQAAASTPTNATAASDANTGDRGQTNNAASASASNST
Turning to B6, the Substrate phosphorylation (% of WTGSK-3β) (% of WTGSK-3β) amounted to 83 in series [1]; 92 with p9CREB, ILSRRPS(p)YR; 88 in series [2].
